# Laboratory results taken from US20020055130A1, “Method and product for regulating apoptosis” (National Jewish Center for Immunology and Respiratory …, priority 1997, published 2002).
# Experiments:
# Format in all cases: cell-based, Human
# HEK293 cells = assay: MEKK1 staining and TdT-mediated dUTP incorporation (DNA fragmentation) in transfected cells; conditions: for diminution of apoptotic cells induced by MEKK1 expression: co-expression with MEKK1
# Protocol: Human embryonal kidney 293 cells (HEK293) stably expressing the EBNA-1 protein from Epstein-Barr virus (Invitrogen) were grown in Dulbecco's modified Eagle's medium (DMEM) supplemented with 100 U/ml penicillin/streptomycin and containing 10% bovine calf serum (BCS). The cells were transfected using lipofectamine (Gibco).
# Cells were grown on glass coverslips and transfected using lipofectamine. Two days after transfection, the medium was removed and the cells were fixed in 2% paraformaldehyde, 3% sucrose in phosphate buffered saline (PBS) for 10 min at room temperature. Following three washes with PBS, the cells were permeabilized for 10 min with 2% Triton-X100 in PBS. After three PBS washes, the cells were blocked with filtered cultured medium for 15 min. The coverslips were then incubated 1 hour in TdT reaction mix (200 mM potassium cacodylate, 25 mM Tris.HCl, pH 6.6, 250 μg/ml BSA, 5 mM CoCl2, 0.25 U/μl TdT [Boehringer], 10 μM biotin-dUTP [Boehringer]) at 37° C. in a humidifed atmosphere. […] The coverslips were then washed 6× over a 30 min period with PBS and incubated 1 hour at room temperature with a 1/1000 dilution in filtered culture medium of a donkey anti-rabbit, Cy^3-conjugated, antibody (Jackson Immunological) mixed with 5 μg/ml streptavidin conjugated with FITC (Jackson Immunological). The coverslips were washed 6× with PBS and incubated overnight in PBS before being mounted in 20 mg/ml o-phenyldiamine-diHCl (Sigma) in 0.1 M Tris pH 8.5, 90% glycerol. Images were taken using a Leica DMRXA microscope and analyzed with the SlideBook v2.0 software (Intelligent Imaging Innovations, Denver). The subcellular localization of endogenous MEKK1 observed with the anti-COOH-terminal MEKK1 antibody was identical to that observed with a second antibody recognizing the NH2-terminal portion of the MEKK1 protein.
# c-Jun kinase (JNK) = assay: c-Jun kinase assay, transfected HEK293 cells; conditions: for effect on activation of the JNKs by MEKK1: co-expression with MEKK1
# Protocol: (§1) Lysis buffer (70 mM β-glycerophosphate, 1 mM EGTA, 100 μM Na3VO4, 1 mM DTT, 2 mM MgCl2, 0.5% Triton-X100, 20 μg/ml aprotinin) was added to cells 15-24 hours after transfection. Cellular debris was removed by centrifugation at 8,000xg for 5 min. Protein concentration was normalized by Bradford assay using BSA as standard.
# c-Jun kinase (JNK) activity was measured using a solid phase kinase assay in which glutathione S-transferase-c-Jun(1-79) (GST-Jun) bound to glutathione-Sepharose 4B beads was used to affinity-purify JNK from cell lysates as described (Gardner and Johnson, 1996; Hibi et al., 1993). Alternatively, JNKI or JNK2 were immunoprecipitated with isoform specific antibodies (Santa Cruz Biotechnology) and GST-Jun used as substrate in an in vitro kinase assay (Hibi et al., 1993). Quantitation of the phosphorylation of GST-Jun was performed with a Phosphorlmager.
# MEKK1 = assay: Immunoblot of cleavage fragments of transfected HA-tagged MEKK1 in HEK293 cells; conditions: for effect on proteolysis of MEKK1: co-expression with MEKK1
# Source text: The full length cDNA encoding mouse MEKK1 was modified by addition of the HA-tag sequence ([…]) (SEQ ID NO: 12) at its NH2-terminus and inserted into the expression plasmid pCEP4 (Invitrogen), resulting in plasmid MEKK1.cp4. The MEKK1 sequences DTVD (amino acids 871-874) and DEVE (amino acids 857-860) in MEKK1.cp4 were substituted with alanines using a PCR strategy. The resulting plasmids were named DTVD_A.cp4 and DEVE_A.cp4. The cDNAs for CrmA (Pickup et al., 1986), p35 (Cartier et al., 1994), JNK1-APF (Dérijard et al., 1994) and JNK2-APF (Kallunki et al., 1994) were subcloned in pCEP4 in which the hygromycin resistance gene had been removed, resulting in plasmids CrmA.cp_, p35.cp_, JNK1_APF.cp and JNK2_APF.cp_. Plasmid pCDNA—3.cp4 is the result of the ligation of pCEP4 and pCDNA-3.
# 200-400 μg cell lysate protein was subjected to SDS-9% PAGE and transferred to nitrocellulose membranes. Blots were performed exactly as described (Widmann et al., 1995). To detect HA-tagged proteins, the mouse monoclonal antibody 12CA5 (Babco) was used as the primary antibody, followed by a rabbit anti-mouse antibody (Cappel). HRP-conjugated protein A at a 1/5000 dilution (Zymed) and ^125I-protein A at a 1/500 dilution (Dupont NEN) were then used for enhanced chemiluminescence (ECL) detection and for quantification using the phosphorimager. To detect MEKK1, 3 different ploclonal antisera were used as primary antibodies, followed by ECL detection using HRP-protein A (see above). These sera were generated by injecting rabbits with GST proteins fused with different portions of the MEKK1 protein.
# ERK2 = ERK2 immunoprecipitation kinase assay, transfected HEK293 cells; conditions: co-expression with MEKK1
# Protocol: as §1
# ERK2 was immunoprecipitated as described above for the JNK isoforms using the ERK2 (C-14) antibody (Santa Cruz Biotechnology). The beads were washed twice with 1 ml lysis buffer and twice with 1 ml lysis buffer without Triton-X100. […] The samples were washed thrice for 5 min each in 75 mM phosphoric acid and once for 2 min in acetone, air-dried, and their radioactivity determined in a β counter.
molecule,measurement,setting,value
"DEVE→A: MEKK1 mutant with DEVE (amino acids 857-860) substituted with alanines (protein, UniProt P53349 2-1493, looked up, variant D857A E858A V859A E860A) Mitogen-activated protein …: AAAAGDRASSSGFPGAAAASPEAGGGGGGGGALQGSGAPAAGAAGLLREPGSAGRERADWRRRQLRKVRSVELDQLPEQPLFLAAASPPCPSTSPSPEPADAAAGASRFQPAAGPPPPGAASRCGSHSAELAAARDSGARSPAGAEPPSAAAPSGREMENKETLKGLHKMEDRPEERMIREKLKATCMPAWKHEWLERRNRRGPVVVKPIPIKGDGSEVNNLAAEPQGEGQAGSAAPAPKGRRSPSPGSSPSGRSVKPESPGVRRKRVSPVPFQSGRITPPRRAPSPDGFSPYSPEETSRRVNKVMRARLYLLQQIGPNSFLIGGDSPDNKYRVFIGPQNCSCGRGAFCIHLLFVMLRVFQLEPSDPMLWRKTLKNFEVESLFQKYHSRRSSRIKAPSRNTIQKFVSRMSNSHTLSSSSTSTSSSENSIKDEEEQMCPICLLGMLDEESLTVCEDGCRNKLHHHCMSIWAEECRRNREPLICPLCRSKWRSHDFYSHELSSPVESPASLRAVQQPSSPQQPVAGSQRRNQESSFNLTHFGTQQIPSAYKDLAEPWIQVFGMELVGCLFSRNWNVREMALRRLSHDVSGALLLANGESTGNSGGGSGGSLSAGAASGSSQPSISGDVVEACCSVLSIVCADPVYKVYVAALKTLRAMLVYTPCHSLAERIKLQRLLRPVVDTILVKCADANSRTSQLSISTVLELCKGQAGELAVGREILKAGSIGVGGVDYVLSCILGNQAESNNWQELLGRLCLIDRLLLEFPAEFYPHIVSTDVSQAEPVEIRYKKLLSLLTFALQSIDNSHSMVGKLSRRIYLSSARMVTAVPAVFSKLVTMLNASGSTHFTRMRRRLMAIAAAAAIAEVIQLGVEDTVDGHQDSLQAVAPTSCLENSSLEHTVHREKTGKGLSATRLSASSEDISDRLAGVSVGLPSSTTTEQPKPAVQTKGRPHSQCLNSSPLSHAQLMFPAPSAPCSSAPSVPDISKHRPQAFVPCKIPSASPQTQRKFSLQFQRNCSEHRDSDQLSPVFTQSRPPPSSNIHRPKPSRPVPGSTSKLGDATKSSMTLDLGSASRCDDSFGGGGNSGNAVIPSDETVFTPVEDKCRLDVNTELNSSIEDLLEASMPSSDTTVTFKSEVAVLSPEKAENDDTYKDDVNHNQKCKEKMEAEEEEALAIAMAMSASQDALPIVPQLQVENGEDIIIIQQDTPETLPGHTKAKQPYREDAEWLKGQQIGLGAFSSCYQAQDVGTGTLMAVKQVTYVRNTSSEQEEVVEALREEIRMMGHLNHPNIIRMLGATCEKSNYNLFIEWMAGGSVAHLLSKYGAFKESVVINYTEQLLRGLSYLHENQIIHRDVKGANLLIDSTGQRLRIADFGAAARLASKGTGAGEFQGQLLGTIAFMAPEVLRGQQYGRSCDVWSVGCAIIEMACAKPPWNAEKHSNHLALIFKIASATTAPSIPSHLSPGLRDVAVRCLELQPQDRPPSRELLKHPVFRTTW",DNA fragmentation,HEK293 cells; expression in HEK293 cells,induced DNA fragmentation
same,JNK activation,c-Jun kinase (JNK); expression in HEK293 cells,activated JNK to the same level as wild type MEKK1
same,MEKK1 cleavage fragments generated,MEKK1; mutants transfected into HEK293 cells,"cleaved into fragments A, B, C and D"
"JNK2-APF: inhibitory mutant of JNK2 (protein, UniProt P45984 1-424, looked up, variant T183A Y185F) Mitogen-activated protein …: MSDSKCDSQFYSVQVADSTFTVLKRYQQLKPIGSGAQGIVCAAFDTVLGINVAVKKLSRPFQNQTHAKRAYRELVLLKCVNHKNIISLLNVFTPQKTLEEFQDVYLVMELMDANLCQVIHMELDHERMSYLLYQMLCGIKHLHSAGIIHRDLKPSNIVVKSDCTLKILDFGLARTACTNFMMAPFVVTRYYRAPEVILGMGYKENVDIWSVGCIMGELVKGCVIFQGTDHIDQWNKVIEQLGTPSAEFMKKLQPTVRNYVENRPKYPGIKFEELFPDWIFPSESERDKIKTSQARDLLSKMLVIDPDKRISVDEALRHPYITVWYDPAEAEAPPPQIYDAQLEEREHAIEEWKELIYKEVMDWEERSKNGVVKDQPSDAAVSSNATPSQSSSINDISSMSTEQTLASDTDSSLDASTGPLEGCR",effect on activation of the JNKs by MEKK1,c-Jun kinase (JNK),unaffected
same,effect on proteolysis of MEKK1,MEKK1,little effect on the proteolysis of the MEKK1 protein
same,effect on activation of ERK2 by MEKK1,ERK2,unaffected
"JNK1-APF: inhibitory mutant of JNK1 (protein, UniProt P45983 1-427, looked up, variant T183A Y185F) Mitogen-activated protein …: MSRSKRDNNFYSVEIGDSTFTVLKRYQNLKPIGSGAQGIVCAAYDAILERNVAIKKLSRPFQNQTHAKRAYRELVLMKCVNHKNIIGLLNVFTPQKSLEEFQDVYIVMELMDANLCQVIQMELDHERMSYLLYQMLCGIKHLHSAGIIHRDLKPSNIVVKSDCTLKILDFGLARTAGTSFMMAPFVVTRYYRAPEVILGMGYKENVDLWSVGCIMGEMVCHKILFPGRDYIDQWNKVIEQLGTPCPEFMKKLQPTVRTYVENRPKYAGYSFEKLFPDVLFPADSEHNKLKASQARDLLSKMLVIDASKRISVDEALQHPYINVWYDPSEAEAPPPKIPDKQLDEREHTIEEWKELIYKEVMDLEERTKNGVIRGQPSPLGAAVINGSQHPSSSSSVNDVSSMSTDPTLASDTDSSLEAAAGPLGCCR",diminution of apoptotic cells induced by MEKK1 expression,HEK293 cells,no effect
same,diminution of apoptotic cells induced by MEKK1 expression,HEK293 cells; listed as JNKI-APF,no protective effect
same,effect on activation of the JNKs by MEKK1,c-Jun kinase (JNK),unaffected
same,effect on proteolysis of MEKK1,MEKK1,little effect on the proteolysis of the MEKK1 protein
same,effect on activation of ERK2 by MEKK1,ERK2,unaffected
